In assay [1] the target is T1, hVEGF-A (human, UniProt P15692-4 27-191, limits assumed).
T1 construct: also called human VEGF-A; WT
Nature of the assay: phage competition ELISA, soluble CKP.

Assay [2] has as its target T2, hVEGF-A (8-109) (human, UniProt P15692 214-315).
T2 sequence (looked up): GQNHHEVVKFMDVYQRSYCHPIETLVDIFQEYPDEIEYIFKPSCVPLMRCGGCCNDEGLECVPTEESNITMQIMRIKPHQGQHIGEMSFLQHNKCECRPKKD
Nature of the assay: spot phage ELISA. How it is done:
(§1) After four rounds of binding selection, individual phage clones were picked and inoculated into 450 μl 2YT media containing 50 µg/ml Carbenecillin and M13-KO7 helper phage in 96-well blocks, which were grown at 37° C. overnight. […] The plates were washed and bound phage was detected with anti-M13-HRP followed by TMB substrate. In these assays, phage binding to BSA alone was tested in parallel to assess background binding. […] Positive clones were subjected to DNA sequence analysis.
In general terms: In an ELISA, binding on a coated surface is turned into a signal by an enzyme label.

The target in assay [3] is T1, hVEGF-A. The assay can be described thus: KDR-VEGF competition ELISA.
Assay [4] concerns the target T1, hVEGF-A. The assay can be described thus: cell-based or functional assay.
For assay [5], the target named is T2, hVEGF-A (8-109). Nature of the assay: spot phage ELISA. How it is done: as §1
This is another data set of the same source.

In assay [6] the target is T1, hVEGF-A. Nature of the assay: phage competition ELISA, soluble CKP. This is another data set of the same source.
Assay [7] has as its target T1, hVEGF-A. The assay can be described thus: SPR. How it is done: Depending on the format of the assay either a streptavidin sensor (SA) or a dextran-coated (CM5) sensor was utilized as described below.
Reaction was then quenched by addition of 10 molar excess of Glycine pH 8.0 and the sample was buffer exchanged into PBS using an Amicon 0.5 mL 3000 MWCO ultra-centrifugal filters (EMD Millipore). The biotinylation state of the protein was verified by LC-MS analysis. Biotinylated VEGF-A was then captured on the surface until a resonance unit (RU) signal of about ˜400. For immobilization of VEGF-A on CM5 sensor, the surface was first activated with a mixture of N-ethyl-N′-(3-dimethylaminopropyl)carbodiimide hydrochloride and N-hydroxysuccinimide (EDC/NHS) according to the supplier instructions. VEGF-A was then diluted into coupling buffer (0.1 M Acetate Buffer, pH 5.0) and injected until the signal reached about ˜400 RU followed by a wash with 1 M ethanolamine pH 8.0 to quench remaining activated sites.
For orientation: SPR reads the build-up and loss of mass on a sensor chip optically.

Assay [8] deals with T2, hVEGF-A (8-109). The assay can be described thus: phage competition ELISA (clone on phage; the concentration varied on the axis is that of hVEGF (8-109)).
The target of assay [9] is T2, hVEGF-A (8-109). The assay is described as above. This is another data set of the same source.
For assay [10], the target named is T2, hVEGF-A (8-109). The description is as above. The source holds these as a separate data set.
Assay [11] concerns the target T2, hVEGF-A (8-109). The assay can be described thus: spot phage ELISA. As for the experimental part:
as §1
The source holds these as a separate data set.

The target of assay [12] is T2, hVEGF-A (8-109). The assay can be described thus: phage competition ELISA.

Read-outs that look alike come from different tables or passages of the source. No end group written: not given here.

One may read the IC50 as the concentration that gives 50% inhibition. In the assay with hVEGF-A [1], GCNLMLPFWGCKQDSDCLAGCVCRWYHSCG (designed binder) [VEGF_CKP9.20] returned an IC50 of 1340 nM.
In the case of GCKLFEPLWGCKQDSDCLAGCVCRWYESCG (designed binder) [VEGF_CKP9.96], in the assay with hVEGF-A (8-109) [2], the ELISA turned out to be 1.2 and the “S/N vs BSA” value was found to be 18.4. Further, the IC50 in the assay with hVEGF-A [1] was found to be 49000 nM.
With GCDVMQPYWGCEMDFDCLAGCVCHWYNSCG (designed binder, also called L2.9.63.44) [VEGF_CKP9.63.44], the IC50 in the assay with hVEGF-A [3] is 0.2 nM. Further, in the assay with hVEGF-A [4], the “Cellular IC50” value was determined as 2.05 nM. In the assay with hVEGF-A (8-109) [5], the ELISA turned out to be 1.7 and the “S/N vs BSA” value stood at 19.5.
On to GCPTTRFKQYCKQDSDCLAGCVCGPNGFCG (designed binder) [VEGF_CKP6], for which the IC50 in the assay with hVEGF-A [6] was 3 µM. Moreover, in the assay with hVEGF-A (8-109) [5], the ELISA was 3.5 and the “S/N vs BSA” value came to 51.9.
As to GCQISQPFWGCKQDSDCLAGCVCHFYNSCG (designed binder) [VEGF_CKP9.3], in the assay with hVEGF-A (8-109) [2], the ELISA turned out to be 1.6 and the “S/N vs BSA” value amounted to 24.5. For the same molecule, the half-maximal inhibitory concentration (IC50) in the assay with hVEGF-A [1] came to 1500 nM.
The term Kd denotes the constant that tells how readily two partners part at equilibrium. Lower therefore signals tighter binding. GCNIMLPFWGCGQSFECLAGCVCQYYQSCG (designed binder) [VEGF_CKP9.54.1] yielded a Kd with hVEGF-A [7] of 2.2 nM. This molecule also returned a 50% inhibitory concentration (IC50) with hVEGF-A [3] of 0.2 nM. For the same molecule, the “Cellular IC50” value with hVEGF-A [4] came to 1.47 nM. In addition, the “IC50 (read off the curve)” value in the assay with hVEGF-A (8-109) [8] is about 0.3 nM. Moreover, in the assay with hVEGF-A (8-109) [5], the ELISA is 2.4 and the “S/N vs BSA” value stood at 29.9.
With GCNIMLPYWGCGQSFECLAGCVCQYYQSCG (designed binder) [VEGF_CKP9.54.1.F8Y], in the assay with hVEGF-A [7], binding was characterised by a dissociation constant (Kd) of 0.78 nM.
GCNIMLPFWGCGLDYDCLAGCVCQYYQSCG (designed binder) [VEGF_CKP9.54.2] returned an IC50 with hVEGF-A [3] of 0.2 nM. Moreover, in the assay with hVEGF-A [4], the “Cellular IC50” value is 4.3 nM. In the assay with hVEGF-A (8-109) [5], the ELISA amounted to 0.1 and the “S/N vs BSA” value is 26.
Consider GCNIMLPFWGCGPDLQCLAGCVCQYYQSCG (designed binder) [VEGF_CKP9.54.59], for which the half-maximal inhibitory concentration (IC50) with hVEGF-A [3] is 0.5 nM. The “Cellular IC50” value in the assay with hVEGF-A [4] was determined as 3.06 nM. Besides, in the assay with hVEGF-A (8-109) [5], the ELISA worked out at 2.3 and the “S/N vs BSA” value is 35.4.
For the molecule GCDVMQPYWGCEMDFDCLAGCICHWYNSCGFS (designed binder) [9.63.44-1], the “IC50 (read off the curve)” value with hVEGF-A (8-109) [9] was about 0.04 nM.
As for GCDVMQPYWGCEMDFDCLAGCICHWYNSCGTS (designed binder) [9.63.44-8], the “IC50 (read off the curve)” value in the assay with hVEGF-A (8-109) [10] was about 0.02 nM.
Same read-out and setting: the same measure for GCDVMQPYWGCEMDFDCLAGCICHWYNSCGWK (designed binder) [9.63.44-14 (SEQ ID NO: 532)]: about 0.07 nM.
Regarding GCDVMQPYWGCEMDFDCLAGCICHWYNSCGPT (designed binder) [9.63.44-5], the binding result with hVEGF-A (8-109) [9] is on record as “binds”.
For GCDVMQPYWGCEMDFDCLVGCVCHWYNSCGDE (designed binder) [9.63.44-10], in the assay with hVEGF-A (8-109) [10], the “IC50 (read off the curve)” value was about 5 nM.
With GCDVMQPYWGCEMDFDCLAGCVCHWYNSCGGI (designed binder) [9.63.44-7], in the assay with hVEGF-A (8-109) [9], the “IC50 (read off the curve)” value is about 0.03 nM.
On the same count and under the same terms, then GCDVMQPYWGCEMDFDCLAGCICHWYNSCGYA (designed binder) [9.63.44-3], with about 0.03 nM.
Turning to GCDVMQPYWGCEMDFDCLAGCVCHWYNSCGSM (designed binder) [9.63.44-6], the binding result with hVEGF-A (8-109) [9] is “binds”.
For GCDVMQPYWGCEMDFDCLAGCVCHWYNSCGQF (designed binder) [9.63.44-13], the “IC50 (read off the curve)” value with hVEGF-A (8-109) [10] is about 0.3 nM.
The same measure, in the same setting: the same measure for GCDVMQPYWGCEMDFDCLAGCVCHWYNSCGPL (designed binder) [9.63.44-12]: about 0.1 nM; for GCDVMQPYWGCEMDFDCLAGCICHWYNSCGLQ (designed binder) [9.63.44-9]: about 0.03 nM.
As for GCDVMQPYWGCEMDFDCLAGCICHWYNSCGSR (designed binder) [9.63.44-4], the “IC50 (read off the curve)” value in the assay with hVEGF-A (8-109) [9] was about 0.04 nM.
Turning to GCDVMQPYWGCEMDFDCLAGCICHWYNSCGQV (designed binder) [9.63.44-2], the “IC50 (read off the curve)” value with hVEGF-A (8-109) [9] was about 0.03 nM.
On to GCDVMQPYWGCEMDFDCLAGCVCHWYNSCGDL (designed binder) [9.63.44-11], for which the binding result with hVEGF-A (8-109) [10] is listed as “binds”.

B1: VEGF_CKP9.54.90-Alkyn (designed binder)
chain: GCNIMLPFWGCGRDFECLAGCVCQYYQSCG
modifications: cysteine pairing not given here; also: -Alkyn: alkyne modification, position not given here
Regarding B1, in the assay with hVEGF-A [7], the Kd was 0.49 nM.
In turn, GCRTPWEPHDITCKQDSDCLAGCVCGPNGFCG (designed binder) [VEGF_CKP11] showed a half-inhibitory concentration (IC50) with hVEGF-A [6] of 80 µM. Besides, in the assay with hVEGF-A (8-109) [5], the ELISA is 4.1 and the “S/N vs BSA” value was 57.5.
Molecule GCVTPWKPHWINCKQDSDCLAGCVCGPNGFCG (designed binder) [VEGF_CKP13] came in with a concentration for half-maximal inhibition (IC50) with hVEGF-A [6] of 80 µM. In the assay with hVEGF-A (8-109) [5], the ELISA amounted to 3.5 and the “S/N vs BSA” value worked out at 56.3.
For GCTTPWPPHEIMCKQDSDCLAGCVCGPNGFCG (designed binder) [VEGF_CKP12], in that order: 60 µM, 3.5 and 55.2.
As to GCDVMQPYWGCGENFLCLAGCVCHWYNSCG (designed binder, also called L2.9.63.1) [VEGF_CKP9.63.1], in the assay with hVEGF-A [3], the half-inhibitory concentration (IC50) was 0.4 nM. Moreover, the “Cellular IC50” value with hVEGF-A [4] is 0.49 nM. For the same molecule, in the assay with hVEGF-A (8-109) [5], the ELISA amounted to 2 and the “S/N vs BSA” value was found to be 25.2.
For GCDVMQPYWGCGESLSCLAGCVCHWYNSCG (designed binder, also called L2.9.63.69) [VEGF_CKP9.63.69], in that order: 2.1 nM, 26.4 nM, 2.9 and 23.7.
In turn, GCDPMQPFWGCKQDSDCLAGCVCRWYQSCG (designed binder) [VEGF_CKP9.59] returned an IC50 with hVEGF-A [1] of 5820 nM.
On the same count and under the same terms, then GCDRMQPLWGCKQDSDCLAGCVCLWYKSCG (designed binder) [VEGF_CKP9.4], with 1950 nM.
On to GCQDPTFNWALYCKQDSDCLAGCVCQMYQSCG (designed binder) [VEGF_CKP7], for which, in the assay with hVEGF-A [6], the concentration for half-maximal inhibition (IC50) came out at 12 µM. Also, the ELISA was 0.1 with hVEGF-A (8-109) [11] and 3.4 with hVEGF-A (8-109) [5]. The “S/N vs BSA” value with hVEGF-A (8-109) [11] turned out to be 1.3; in the assay with hVEGF-A (8-109) [5], 54.5.
Consider GCRDLDVKWDCKQDSDCLAGCFCQYYSSCG (designed binder) [VEGF_CKP10], for which the IC50 with hVEGF-A [6] was determined as 1 µM. Moreover, in the assay with hVEGF-A (8-109) [5], the ELISA is 3.2 and the “S/N vs BSA” value was 43.7.
Take GCNIMLPFWGCGQSFECLAGCICQYYQSCGIA (designed binder) [9.54.1-2]: in the assay with hVEGF-A (8-109) [12], the “fold improvement in binding affinity compared to 9.54.1” value is about 10 fold.

Source of the values: patent publication US20200325187A1 (Genentech, published 2020).
